Values of other authors, collected in patent US8168409B2, “Compositions and methods relating to anti-IGF-1 receptor antibodies” (Amgen Inc., priority 2004, dated 2012).

Molecular target: IGF-1R (Homo sapiens, UniProt P08069)
Settings: biphasic binding; high affinity component

For “IGF-2: insulin-like growth factor 2, ligand of IGF-1R”, which Kd is on record?
Its Kd is about 0.2 nM.
